Data: US8663912B2, “Fluorogenic substrate for ADAMTS13” (Washington University, priority 2011, dated 2014)

Molecular target: T1, ADAMTS13 (Homo sapiens, UniProt Q76LX8)
T1 sequence (Q76LX8 75-1427): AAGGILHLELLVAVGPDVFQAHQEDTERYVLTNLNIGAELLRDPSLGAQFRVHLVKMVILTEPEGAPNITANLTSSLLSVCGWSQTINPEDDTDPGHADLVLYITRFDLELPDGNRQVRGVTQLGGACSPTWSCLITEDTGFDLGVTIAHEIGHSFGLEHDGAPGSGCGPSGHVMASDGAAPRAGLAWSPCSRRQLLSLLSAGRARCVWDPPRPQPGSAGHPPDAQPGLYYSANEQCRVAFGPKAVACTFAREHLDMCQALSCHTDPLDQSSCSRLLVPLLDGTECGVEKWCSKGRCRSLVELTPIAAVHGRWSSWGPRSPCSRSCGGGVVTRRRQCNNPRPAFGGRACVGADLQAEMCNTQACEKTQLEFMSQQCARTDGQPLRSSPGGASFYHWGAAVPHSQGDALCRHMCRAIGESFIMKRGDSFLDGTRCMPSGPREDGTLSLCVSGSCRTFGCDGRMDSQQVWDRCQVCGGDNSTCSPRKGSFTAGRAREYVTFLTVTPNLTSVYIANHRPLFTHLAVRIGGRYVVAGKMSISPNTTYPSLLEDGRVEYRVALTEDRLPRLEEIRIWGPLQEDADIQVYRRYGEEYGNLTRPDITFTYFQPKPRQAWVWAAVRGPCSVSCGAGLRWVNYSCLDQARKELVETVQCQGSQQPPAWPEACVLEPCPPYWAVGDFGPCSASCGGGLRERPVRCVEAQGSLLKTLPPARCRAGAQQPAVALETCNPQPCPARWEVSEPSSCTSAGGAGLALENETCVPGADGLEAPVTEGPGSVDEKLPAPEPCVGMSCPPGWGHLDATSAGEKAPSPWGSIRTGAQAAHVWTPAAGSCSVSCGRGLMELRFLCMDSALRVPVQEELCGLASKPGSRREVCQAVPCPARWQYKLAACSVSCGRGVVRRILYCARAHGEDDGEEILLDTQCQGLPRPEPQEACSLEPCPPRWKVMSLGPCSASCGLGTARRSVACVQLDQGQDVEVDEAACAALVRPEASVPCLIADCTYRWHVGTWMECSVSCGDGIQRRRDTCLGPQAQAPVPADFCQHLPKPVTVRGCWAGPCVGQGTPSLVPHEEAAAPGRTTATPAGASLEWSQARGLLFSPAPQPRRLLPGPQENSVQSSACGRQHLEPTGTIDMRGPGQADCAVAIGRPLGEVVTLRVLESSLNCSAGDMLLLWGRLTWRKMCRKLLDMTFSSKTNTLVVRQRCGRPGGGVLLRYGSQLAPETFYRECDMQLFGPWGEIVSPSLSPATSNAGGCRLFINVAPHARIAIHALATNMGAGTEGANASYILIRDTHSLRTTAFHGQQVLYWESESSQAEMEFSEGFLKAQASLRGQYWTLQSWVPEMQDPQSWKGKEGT
Assay: Effect of bilirubin and hemoglobin on FRETS-rVWF71 ADAMTS13 assays
Assay type: biochemical
Design: FRETS-rVWF71 cleavage by plasma ADAMTS13 (50 μL) was assessed in 200 μL reactions; from tissue; host or cells: human plasma or serum (pooled normal plasma, healthy donors, TTP patients)

hemoglobin
IC50 for inhibition of ADAMTS13 activity (FRETS-rVWF71 substrate): 10-15 g/L | effect on detection of FRETS-rVWF71 cleavage products (hemoglobin ≦20 g/L): did not affect
